Assay results from paper PMC8079461, “ApoA5 lowers triglyceride levels via suppression of ANGPTL3/8-mediated LPL inhibition” (Journal of Lipid Research, 2021).
“And” between values parts separate entries of the source, which are not always exact repeats. Equal values may be shown once.

T1: ANGPTL3/8 complex present in human serum (human (endogenous in serum)) (UniProt Q6UXH0)
T1 sequence (Q9Y5C1 17-460, looked up): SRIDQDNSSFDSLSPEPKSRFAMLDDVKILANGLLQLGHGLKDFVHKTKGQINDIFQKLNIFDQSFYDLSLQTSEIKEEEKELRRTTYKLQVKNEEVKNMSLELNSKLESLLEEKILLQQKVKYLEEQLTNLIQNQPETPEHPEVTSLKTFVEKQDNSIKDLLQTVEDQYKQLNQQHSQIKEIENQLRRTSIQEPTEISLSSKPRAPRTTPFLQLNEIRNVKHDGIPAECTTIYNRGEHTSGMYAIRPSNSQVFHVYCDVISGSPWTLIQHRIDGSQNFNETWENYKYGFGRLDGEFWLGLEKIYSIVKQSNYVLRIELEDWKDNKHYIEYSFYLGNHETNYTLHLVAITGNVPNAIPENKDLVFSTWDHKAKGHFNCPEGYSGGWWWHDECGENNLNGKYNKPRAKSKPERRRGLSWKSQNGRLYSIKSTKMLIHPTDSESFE
T1 sequence (Q6UXH0 22-198, looked up): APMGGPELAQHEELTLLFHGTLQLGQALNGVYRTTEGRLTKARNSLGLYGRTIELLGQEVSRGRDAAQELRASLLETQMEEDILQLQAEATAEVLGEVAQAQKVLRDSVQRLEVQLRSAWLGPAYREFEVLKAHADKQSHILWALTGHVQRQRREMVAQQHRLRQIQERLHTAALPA

T2: ANGPTL3/8 complex containing a FLAG-tag sequence at the C terminus of ANGPTL3 (recombinant, human) (human, UniProt Q9Y5C1 17-460; Q6UXH0 22-198)
T2 construct: human angiopoietin-like protein 3 (ANGPTL3); human angiopoietin-like protein 8 (ANGPTL8); also called Flag-tagged ANGPTL3/8 complex; human ANGPTL3/8; not shown: FLAG, C-terminal, kept; copies: 3 + 1
T2 sequence (looked up) 1: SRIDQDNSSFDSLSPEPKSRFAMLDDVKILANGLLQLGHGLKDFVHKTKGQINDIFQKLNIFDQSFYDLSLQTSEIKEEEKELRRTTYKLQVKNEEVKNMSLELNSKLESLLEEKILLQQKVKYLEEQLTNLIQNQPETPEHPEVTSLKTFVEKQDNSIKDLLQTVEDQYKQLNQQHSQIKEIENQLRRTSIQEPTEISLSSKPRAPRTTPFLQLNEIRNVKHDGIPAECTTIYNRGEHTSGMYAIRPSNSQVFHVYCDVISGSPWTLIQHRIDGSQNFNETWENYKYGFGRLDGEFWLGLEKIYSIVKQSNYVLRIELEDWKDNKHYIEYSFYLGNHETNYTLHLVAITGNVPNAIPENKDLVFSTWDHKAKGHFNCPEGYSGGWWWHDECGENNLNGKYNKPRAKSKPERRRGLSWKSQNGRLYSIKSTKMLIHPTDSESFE
T2 sequence (looked up) 2: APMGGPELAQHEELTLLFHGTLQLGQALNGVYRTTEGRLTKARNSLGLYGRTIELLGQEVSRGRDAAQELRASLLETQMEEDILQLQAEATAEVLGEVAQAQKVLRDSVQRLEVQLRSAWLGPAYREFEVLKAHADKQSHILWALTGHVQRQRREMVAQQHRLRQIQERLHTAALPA


Tests used:
[1] = target: ANGPTL8 in human serum (human (endogenous in serum)) (UniProt Q6UXH0); experiment: affinity purification with mass spectrometry; immunoprecipitation with the anti-ANGPTL3/8 antibody from 1 ml pooled human serum (three pools); on-bead Trypsin/Lys-C digest; LC-MRM with 0.25 pmole stable isotope-labeled peptides, two peptides a protein
[2] = target: T1, ANGPTL3/8 complex present in human serum (human (endogenous in serum)); experiment: as above
[3] = target: T2, ANGPTL3/8 complex containing a FLAG-tag …; experiment: BLI; Octet RED96e; FLAG-tagged ANGPTL3/8 immobilised by anti-FLAG antibody on streptavidin biosensors; 6.25-100 nM HSA-ApoA5 in solution; background reference subtraction; global fit, 1:1 binding model; settings: both partners purified
[4] = target: T2, ANGPTL3/8 complex containing a FLAG-tag …; experiment: cell-based or functional assay

Row | stoichiometry N [1] | protein ratio ApoA5/ANGPTL8 in the immunoprecipitate (ApoA5 per ANGPTL3/8 complex) [2] | Kd [3] | koff [3] | kon [3] | EC50 of HSA-ApoA5 to block the inhibition of LPL activity by 0.3 nM ANGPTL3/8 (human LPL-stable expression cells, EnzChek substrate) [4] | Molecule
1 | 2.8 and 2.7 |  |  |  |  |  | ANGPTL3 in human serum (natural protein)
2 |  | 0.5 and 0.53 | 0.52 nM | 0.000135 s⁻¹ | 260000 M⁻¹ s⁻¹ | 21 nM | HSA-ApoA5 (HIS tag-mature HSA-PreScission cleavage site-mature human ApoA5, residues 24-366) (natural protein, UniProt Q6Q788 24-366, looked up, mature human ApoA5, residues 24-366 of NP_443200.2; Secreted by a mouse IgG kappa signal peptide; source: HEK293, transient transfection, purified from culture media (Ni-NTA, Superdex 200); not shown: His tag, N-terminal, kept; mature human serum albumin (HSA), N-terminal, kept) RKGFWDYFSQTSGDKGRVEQIHQQKMAREPATLKDSLEQDLNNMNKFLEKLRPLSGSEAPRLPQDPVGMRRQLQEELEEVKARLQPYMAEAHELVGWNLEGLRQQLKPYTMDLMEQVALRVQELQEQLRVVGEDTKAQLLGGVDEAWALLQGLQSRVVHHTGRFKELFHPYAESLVSGIGRHVQELHRSVAPHAPASPARLSRCVQVLSRKLTLKAKALHARIQQNLDQLREELSRAFAGTGTEEGAGPDPQMLSEEVRQRLQAFRQDTYLQIAAFTRAIDQETEEVQQQLAPPPPGHSAFAPEFQQTDSGKVLSKLQARLDDLWEDITHSLHDQGHSHLGDP
